Source: article PMC8641065 (The New phytologist, 2021)

Target: T1, HY5-S36A-GFP (Arabidopsis thaliana, UniProt O24646 1-168, S36A)
T1 sequence (looked up): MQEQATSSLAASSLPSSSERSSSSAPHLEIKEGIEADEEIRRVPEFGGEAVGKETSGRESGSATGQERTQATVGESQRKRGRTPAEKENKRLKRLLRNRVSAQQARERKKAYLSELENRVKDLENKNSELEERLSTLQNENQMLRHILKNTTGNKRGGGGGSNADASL
Assay: co-IP

B1: COP1 (constitutive photomorphogenic1), endogenous (natural protein, UniProt P43254 1-675, looked up)
chain: MEEISTDPVVPAVKPDPRTSSVGEGANRHENDDGGSGGSEIGAPDLDKDLLCPICMQIIKDAFLTACGHSFCYMCIITHLRNKSDCPCCSQHLTNNQLYPNFLLDKLLKKTSARHVSKTASPLDQFREALQRGCDVSIKEVDNLLTLLAERKRKMEQEEAERNMQILLDFLHCLRKQKVDELNEVQTDLQYIKEDINAVERHRIDLYRARDRYSVKLRMLGDDPSTRNAWPHEKNQIGFNSNSLSIRGGNFVGNYQNKKVEGKAQGSSHGLPKKDALSGSDSQSLNQSTVSMARKKRIHAQFNDLQECYLQKRRQLADQPNSKQENDKSVVRREGYSNGLADFQSVLTTFTRYSRLRVIAEIRHGDIFHSANIVSSIEFDRDDELFATAGVSRCIKVFDFSSVVNEPADMQCPIVEMSTRSKLSCLSWNKHEKNHIASSDYEGIVTVWDVTTRQSLMEYEEHEKRAWSVDFSRTEPSMLVSGSDDCKVKVWCTRQEASVINIDMKANICCVKYNPGSSNYIAVGSADHHIHYYDLRNISQPLHVFSGHKKAVSYVKFLSNNELASASTDSTLRLWDVKDNLPVRTFRGHTNEKNFVGLTVNSEYLACGSETNEVYVYHKEITRPVTSHRFGSPDMDDAEEEAGSYFISAVCWKSDSPTMLTANSQGTIKVLVLAA
Question: B1 was tested. Which “fold of COP1 co-immunoprecipitated, against the HY5-S36D-GFP line” value did it give?
Answer: Its value is 4 fold.
